Experimental data reported in patent publication US20210403546A1 (published 2021).

Biological target: human recombinant TGF-b1 (human, UniProt P01137 279-390)
Test: Biacore SPR

Chain of human recombinant TGF-b1 (P01137 279-390): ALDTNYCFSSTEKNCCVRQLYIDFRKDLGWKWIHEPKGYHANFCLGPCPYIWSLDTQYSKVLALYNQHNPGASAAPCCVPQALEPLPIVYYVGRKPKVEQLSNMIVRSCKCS

Kd [nM]	Binder
0.639	13A1_2F Fab (LCR13A1_VK_GLv1_05 + LCR13A1_VH_GLv1_03, stable Fab) (Fab, V domains shown) VH: QVQLVQSGSVLAKPGASVKVSCKASGYTFTNYWMHWVRQAPGQGLEWIGTIYPGNSDTNYNQKFKDRAKLTAVTSTSTVYMELSSLRSEDTAVYYCTREDSRSLYYNGWDYFDYWGQGTLVTVSS VL: DIVMTQSPDSLAVSLGERATISCRASESVDNYGISFLNWFQQKPGQPPKLLIYAASNQGSGVPSRFSGSGSGTDFTLNIHPLEAEDAATYYCQQSKEVPRTFGGGTKVEIK
0.615	13A1_2B Fab (LCR13A1_VH_GLv1_03_LCR13A1_VK_GLv3, stable Fab) (Fab, V domains shown) VH: QVQLVQSGSVLAKPGASVKVSCKASGYTFTNYWMHWVRQAPGQGLEWIGTIYPGNSDTNYNQKFKDRAKLTAVTSTSTVYMELSSLRSEDTAVYYCTREDSRSLYYNGWDYFDYWGQGTLVTVSS VL: DIVMTQSPDSLAVSLGERATINCKSSESVDNYGISFLNWFQQKPGKAPKLLIYAASNQGSGVPDRFSGSGSGTDFTLTISSLQAEDVAVYFCQQSKEVPRTFGGGTKLEIK
